Substitutions are numbered along the chain they refer to. Names may count otherwise. Each block holds one binder with its values, some of them ahead of it.
How the values were obtained:
[1] = target: T1, SGFP2-fused SARAF partial fragment (SARAF-p) (human, UniProt Q96BY9 195-339); test: pull-down; SGFP2-fused proteins held on protein G magnetic beads via anti-GFP pAb; incubated with Nluc-ALG-2 (300 ng/mL) in buffer HKM, 0.2% Nonidet P-40, 0.1% gelatin, 100 μM CaCl2, 2 h, 4 °C; bound luciferase activity relative to Sec31A-p (100%); details: one partner purified
T1 construct: source: HEK293 ALG-2KD, transfected, immunoprecipitated with anti-GFP pAb from cleared lysate
T1 sequence (looked up): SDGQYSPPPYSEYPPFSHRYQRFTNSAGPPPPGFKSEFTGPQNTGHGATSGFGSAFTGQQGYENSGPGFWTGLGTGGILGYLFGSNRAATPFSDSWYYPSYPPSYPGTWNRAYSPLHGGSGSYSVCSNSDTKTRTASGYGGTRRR

[2] = target: T2, StrepHA-SARAF_CytD-SGFP2 F228S (human, UniProt Q96BY9 195-339, F228S); test: co-IP; co-IP/HiBiT assay: SGFP2-fused proteins immunoprecipitated with anti-GFP pAb from HEK293 or HEK293 ALG-2KO lysates (with or without co-expressed FLAG-ALG-2); HKM, 1% Nonidet P-40, 10 mM NEM, 10 μM CaCl2; co-precipitated HiBiTHA-SARAF read by lytic HiBiT assay with LgBiT, normalised by StrepTactin-AP; details: partners not purified
T2 construct: SARAF CytD, human, 195-339 a.a., F228S; also called F228S mutant; source: HEK293 or HEK293 ALG-2KO, transfected, in lysate; not shown: Twin-Strep, N-terminal, kept; 3xHA, N-terminal, kept; SGFP2, C-terminal, kept
T2 sequence (looked up): T1 sequence (looked up) with F34S

[3] = target: T3, StrepHA-SARAF_CytD-SGFP2 (WT) (human, UniProt Q96BY9 195-339); test: as above; details: partners not purified
T3 construct: SARAF cytosolic domain (CytD), human, 195-339 a.a; source: HEK293 or HEK293 ALG-2KO, transfected, in lysate; not shown: Twin-Strep, N-terminal, kept; 3xHA, N-terminal, kept; SGFP2, C-terminal, kept
T3 sequence (looked up): T1 sequence (looked up)

binding activity relative to Sec31A-p (100%) [1]: 71.5%
B1: nanoluciferase (NanoLuc, Nluc)-fused ALG-2 (natural protein, UniProt O75340 1-191, looked up)
chain: MAAYSYRPGPGAGPGPAAGAALPDQSFLWNVFQRVDKDRSGVISDTELQQALSNGTWTPFNPVTVRSIISMFDRENKAGVNFSEFTGVWKYITDWQNVFRTYDRDNSGMIDKNELKQALSGFGYRLSDQFHDILIRKFDRQGRGQIAFDDFIQGCIVLQRLTDIFRRYDTDQDGWIQVSYEQYLSMVFSIV
notes: synthetic gene for bacterial expression in pET24d; The whole Nluc-ALG-2 fusion is deposited as LC381846; also called Nluc-ALG-2; NlucALG-2

relative interaction activity (WT expressed as 100%) [2]: ~15 % of WT
B2: full-length HiBiTHA-SARAF F228S (natural protein, human, UniProt Q96BY9 31-339, looked up)
chain: WNDPDRMLLRDVKALTLHYDRYTTSRRLDPIPQLKCVGGTAGCDSYTPKVIQCQNKGWDGYDVQWECKTDLDIAYKFGKTVVSCEGYESSEDQYVLRGSCGLEYNLDYTELGLQKLKESGKQHGFASFSDYYYKWSSADSCNMSGLITIVVLLGIAFVVYKLFLSDGQYSPPPYSEYPPFSHRYQRFTNSAGPPPPGSKSEFTGPQNTGHGATSGFGSAFTGQQGYENSGPGFWTGLGTGGILGYLFGSNRAATPFSDSWYYPSYPPSYPGTWNRAYSPLHGGSGSYSVCSNSDTKTRTASGYGGTRRR
notes: signal peptide in the construct; SARAF, human, full length, HiBiTHA inserted after the signal peptide; F228S; source: HEK293, transfected, in lysate; not shown: HiBiT, internal (after residue 30), kept

fold enhancement, Ca2+ over 5 mM EGTA, HEK293 ALG-2KO cells [3]: 1.3 fold
fold enhancement, Ca2+ over 5 mM EGTA, parental HEK293 cells [3]: 3.7 fold
B3: full-length HiBiTHA-SARAF (WT) (natural protein, human, UniProt Q96BY9 31-339, looked up)
chain: B2 chain with S198F
notes: signal peptide in the construct; SARAF, human, full length; HiBiT and 3xHA (HiBiTHA) inserted between the signal peptide and the N-terminus of mature SARAF (31-339 a.a.); construction is in the Supplementary Information; source: HEK293 or HEK293 ALG-2KO, transfected, in lysate; not shown: HiBiT, internal (after residue 30), kept
